The values that follow come from patent US20230302148A1, “PHARMACEUTICAL COMPOSITION COMPRISING LONG-ACTING CONJUGATE OF TRIPLE GLUCAGON/GLP-1/GIP RECEPTOR AGONIST” (HANMI PHARM. CO., LTD., priority 2020, published 2023).

Bridges are numbered along the chain shown (N, C = ends). Where no end group is shown, it is not given here. [ ]: non-standard residue; d: D form. Aib = CC(C)(N)C(=O)O Where only a bound is given, the exact number is not on record here.

Series [1] is described as follows: FIGURE 13. From the text: Table printed on a drawing sheet, FIGURE 13
W1 means Week 1 and W12 means Week 12.
First reader's note: The first row gives the substance together with its dose (mg/kg), and each result cell holds the value with its ± deviation in the same cell.

A short description of series [2]: FIGURE 5. From the text: Table printed on a drawing sheet, FIGURE 5
Series [3] concerns the target T1, human GIP receptor (human, UniProt P48546 22-466).
T1 sequence (looked up): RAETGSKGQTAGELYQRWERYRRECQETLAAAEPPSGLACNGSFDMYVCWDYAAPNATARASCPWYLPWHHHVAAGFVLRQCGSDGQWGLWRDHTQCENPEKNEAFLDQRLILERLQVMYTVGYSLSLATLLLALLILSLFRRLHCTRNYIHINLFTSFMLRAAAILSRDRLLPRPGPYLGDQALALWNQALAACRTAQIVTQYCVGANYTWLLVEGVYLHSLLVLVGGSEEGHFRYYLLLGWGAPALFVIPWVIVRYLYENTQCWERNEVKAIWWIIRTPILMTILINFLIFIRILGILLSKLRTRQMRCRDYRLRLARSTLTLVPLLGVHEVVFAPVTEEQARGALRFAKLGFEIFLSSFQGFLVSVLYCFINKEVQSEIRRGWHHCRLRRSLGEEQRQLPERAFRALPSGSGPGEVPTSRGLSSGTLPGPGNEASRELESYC
The experiment in a line: cell-based or functional assay.

In series [4] the target is human GLP-1 receptor (human, UniProt P43220 24-463). The series can be described thus: cell-based or functional assay.
In series [5] the target is human GCG receptor (human, UniProt P47871 26-477). The series can be described thus: cell-based or functional assay.
Sequence of human GCG receptor (P47871 26-477): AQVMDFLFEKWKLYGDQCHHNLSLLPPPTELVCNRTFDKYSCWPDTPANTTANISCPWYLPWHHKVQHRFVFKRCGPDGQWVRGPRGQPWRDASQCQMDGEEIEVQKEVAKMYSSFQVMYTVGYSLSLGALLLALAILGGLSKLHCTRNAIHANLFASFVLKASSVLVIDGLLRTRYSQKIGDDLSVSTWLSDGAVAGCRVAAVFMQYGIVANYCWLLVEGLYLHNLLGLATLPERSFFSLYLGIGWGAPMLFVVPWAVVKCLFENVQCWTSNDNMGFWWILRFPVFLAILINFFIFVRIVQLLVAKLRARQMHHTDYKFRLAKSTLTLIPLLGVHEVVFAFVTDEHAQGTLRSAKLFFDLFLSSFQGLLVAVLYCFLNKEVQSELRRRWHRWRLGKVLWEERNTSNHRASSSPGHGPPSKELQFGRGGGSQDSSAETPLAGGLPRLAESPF

Usually Tmax stands for the time from dosing to the highest level. As to “LONG-ACTING CONJUGATE OF SEQ ID NO: 42 0.02 mg/kg (Y[Aib]QGTFTSDYSKYLDEKRAKEFVQWLLDHHPSSGQPPPSC; lactam 16-20; not fully specified (residue 40); also: long-acting carrier conjugate)”, in series [1], the “AUC0-168h” value was 11770.3 ± 7192.4 ng·h/mL and the “Tmax” value was 48.00 ± 22.22 h.
The term Cmax denotes the peak of the concentration-time curve. “LONG-ACTING CONJUGATE OF SEQ ID NO: 42 0.01 mg/kg (Y[Aib]QGTFTSDYSKYLDEKRAKEFVQWLLDHHPSSGQPPPSC; lactam 16-20; not fully specified (residue 40); also: long-acting carrier conjugate)”: in series [1], the “Cmax” value is reported as 31.22 ± 13.47 ng/mL and the time to peak (Tmax) is 48.00 ± 12.00 h.
With “LONG-ACTING CONJUGATE OF SEQ ID NO: 42 0.01 mg/kg (N=5) (Y[Aib]QGTFTSDYSKYLDEKRAKEFVQWLLDHHPSSGQPPPSC; lactam 16-20; not fully specified (residue 40); also: long-acting carrier conjugate)”, in series [2], the “Dose-normalized Cmax (ng/mL/mg)” value is 30.73 (13.34) ng/mL/mg and the “Tmax (hr)” value is reported as 31.20 (10.733) hr.

B1: triple agonist of SEQ ID NO: 33 (peptide)
peptide: H[Aib]QGTFTSDYSIAMDEIHQKDFVNWLLAQKC
modifications: bridge 16-20
In the case of B1, the “In vitro activity relative to native peptide (%) vs. GIP” value in series [3] stood at 10.4%. For the same molecule, the “In vitro activity relative to native peptide (%) vs. GLP-1” value in series [4] worked out at 24.5%. In series [5], the “In vitro activity relative to native peptide (%) vs. Glucagon” value was under 0.1%.
